In PMC9638935 (Nucleic Acids Research, 2022):

Experiments:
[1] = biological target: T1, Cbp80 (tag not named for Figures 4C-D and 5D) (S. cerevisiae, UniProt P34160 1-861); assay: co-IP
T1 sequence (looked up): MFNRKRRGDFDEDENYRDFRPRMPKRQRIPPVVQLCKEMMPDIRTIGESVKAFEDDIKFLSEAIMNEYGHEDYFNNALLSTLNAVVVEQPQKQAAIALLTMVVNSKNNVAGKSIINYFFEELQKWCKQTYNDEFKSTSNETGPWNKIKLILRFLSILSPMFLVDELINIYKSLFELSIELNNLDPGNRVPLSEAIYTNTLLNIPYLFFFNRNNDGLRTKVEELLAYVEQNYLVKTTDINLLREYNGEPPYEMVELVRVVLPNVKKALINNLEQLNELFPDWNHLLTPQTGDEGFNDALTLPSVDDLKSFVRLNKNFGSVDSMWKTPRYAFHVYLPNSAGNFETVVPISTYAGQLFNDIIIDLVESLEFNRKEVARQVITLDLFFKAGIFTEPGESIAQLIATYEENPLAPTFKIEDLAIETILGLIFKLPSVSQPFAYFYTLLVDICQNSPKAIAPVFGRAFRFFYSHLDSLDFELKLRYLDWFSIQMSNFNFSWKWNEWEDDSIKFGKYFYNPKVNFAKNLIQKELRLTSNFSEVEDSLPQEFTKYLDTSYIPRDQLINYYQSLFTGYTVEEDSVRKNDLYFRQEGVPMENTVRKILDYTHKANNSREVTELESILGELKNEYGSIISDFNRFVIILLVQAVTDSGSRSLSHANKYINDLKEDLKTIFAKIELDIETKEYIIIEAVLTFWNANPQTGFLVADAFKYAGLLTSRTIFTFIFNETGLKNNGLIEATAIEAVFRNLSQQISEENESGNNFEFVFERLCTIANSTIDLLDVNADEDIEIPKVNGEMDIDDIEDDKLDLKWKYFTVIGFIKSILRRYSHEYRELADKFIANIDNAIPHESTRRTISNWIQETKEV

Mex67 = biological target: T2, Mex67 (S. cerevisiae, UniProt Q99257 1-599); assay: co-IP
T2 sequence (looked up): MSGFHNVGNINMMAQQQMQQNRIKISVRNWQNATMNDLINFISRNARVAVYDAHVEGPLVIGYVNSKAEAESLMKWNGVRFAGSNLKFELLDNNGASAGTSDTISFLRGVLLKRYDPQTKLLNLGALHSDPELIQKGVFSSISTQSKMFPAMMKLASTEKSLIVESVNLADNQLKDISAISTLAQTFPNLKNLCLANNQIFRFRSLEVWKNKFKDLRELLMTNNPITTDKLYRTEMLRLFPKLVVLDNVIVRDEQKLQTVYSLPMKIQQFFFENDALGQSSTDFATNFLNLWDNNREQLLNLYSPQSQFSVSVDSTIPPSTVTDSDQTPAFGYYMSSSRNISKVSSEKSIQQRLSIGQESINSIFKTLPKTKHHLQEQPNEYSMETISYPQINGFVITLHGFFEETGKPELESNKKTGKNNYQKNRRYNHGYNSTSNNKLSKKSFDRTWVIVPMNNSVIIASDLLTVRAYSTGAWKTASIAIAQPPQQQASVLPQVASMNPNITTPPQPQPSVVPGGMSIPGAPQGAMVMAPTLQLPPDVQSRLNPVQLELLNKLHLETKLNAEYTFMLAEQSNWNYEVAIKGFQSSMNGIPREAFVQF

B1: Npl3 (natural protein, S. cerevisiae, UniProt Q01560 1-414, looked up)
chain: MSEAQETHVEQLPESVVDAPVEEQHQEPPQAPDAPQEPQVPQESAPQESAPQEPPAPQEQNDVPPPSNAPIYEGEESHSVQDYQEAHQHHQPPEPQPYYPPPPPGEHMHGRPPMHHRQEGELSNTRLFVRPFPLDVQESELNEIFGPFGPMKEVKILNGFAFVEFEEAESAAKAIEEVHGKSFANQPLEVVYSKLPAKRYRITMKNLPEGCSWQDLKDLARENSLETTFSSVNTRDFDGTGALEFPSEEILVEALERLNNIEFRGSVITVERDDNPPPIRRSNRGGFRGRGGFRGGFRGGFRGGFSRGGFGGPRGGFGGPRGGYGGYSRGGYGGYSRGGYGGSRGGYDSPRGGYDSPRGGYSRGGYGGPRNDYGPPRGSYGGSRGGYDGPRGDYGPPRDAYRTRDAPRERSPTR
co-IP signal in cet1-2 relative to wild type [1]: ~60%
drop of the co-IP signal in cet1-2 and rat1-1 cells relative to wild type (Mex67): ~20%
